We go through one molecule from article PMC3226482 (Molecular Biology of the Cell, 2011).

This test deals with T1, karyopherin β2 (human, UniProt Q92973 1-898).
T1 sequence: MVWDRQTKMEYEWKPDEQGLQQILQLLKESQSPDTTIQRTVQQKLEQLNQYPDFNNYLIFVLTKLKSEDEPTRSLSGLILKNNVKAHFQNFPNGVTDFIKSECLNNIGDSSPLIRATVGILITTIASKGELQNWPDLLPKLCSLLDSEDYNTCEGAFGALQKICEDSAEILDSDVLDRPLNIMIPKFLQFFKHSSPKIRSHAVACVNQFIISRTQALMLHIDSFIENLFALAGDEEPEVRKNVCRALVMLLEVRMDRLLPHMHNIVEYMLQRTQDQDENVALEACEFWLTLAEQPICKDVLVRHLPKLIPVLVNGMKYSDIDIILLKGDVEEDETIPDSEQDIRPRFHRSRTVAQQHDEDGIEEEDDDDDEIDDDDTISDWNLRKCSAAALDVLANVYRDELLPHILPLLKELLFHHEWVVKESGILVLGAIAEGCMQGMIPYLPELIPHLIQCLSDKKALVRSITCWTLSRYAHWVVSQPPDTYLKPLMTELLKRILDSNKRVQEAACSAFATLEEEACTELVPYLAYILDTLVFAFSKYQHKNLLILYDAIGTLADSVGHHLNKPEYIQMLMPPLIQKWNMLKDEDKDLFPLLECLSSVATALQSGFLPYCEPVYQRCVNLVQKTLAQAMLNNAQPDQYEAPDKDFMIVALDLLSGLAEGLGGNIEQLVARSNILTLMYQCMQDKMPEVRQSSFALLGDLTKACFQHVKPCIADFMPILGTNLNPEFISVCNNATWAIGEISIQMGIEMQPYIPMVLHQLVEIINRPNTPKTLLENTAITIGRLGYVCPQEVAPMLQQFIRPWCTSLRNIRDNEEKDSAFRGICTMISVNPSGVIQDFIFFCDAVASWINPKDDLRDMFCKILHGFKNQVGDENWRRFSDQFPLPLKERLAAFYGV
In words: ITC. For orientation: Isothermal titration calorimetry measures the heat released or taken up as one component is titrated into another.

B1: hsNXF1 fragment, residues 1-92 (domain or fragment)
chain: MADEGKSYSEHDDERVNFPQRKKKGRGPFRWKYGEGNRRSGRGGSGIRSSRLEEDDGDVAMSDAQDGPRVRYNPYTTRPNRRGDTWHDRDRI
Take B1: the Kd stood at 54 nM.

The Kd is a measure of binding affinity in units of concentration. High values mean lower affinity, low ones higher affinity.
